Measured values published in patent US20150359847A1, “METHOD AND COMPOSITION FOR CONFERRING NEUROPROTECTION” (BLOOD SYSTEMS RESEARCH INSTITUTE, priority 2014, published 2015).

Legend:
[1] = tested on: mouse model of controlled cortical impact (CCI); test: Context-dependent fear discrimination in CCI TBI mice (Example 1); format: in vivo; settings: TIMP3 60 μg/kg IV x3; task day 2 (day 16)
Source text: (§1) The mouse controlled cortical impact (CCI) injury model was used as previously described. In brief, mice were anesthetized with 5% isoflurane and 1:1 O2:N2 mixture. Animals were mounted on a stereotaxic frame and were secured by ear bars and an incisor bar. Anesthesia was maintained with 2.0% isoflurane and 1:1 O2:N2 mixture. A 5-mm-diameter craniotomy was made midway between bregma and lambda on the right side, with the medial edge of the craniotomy 1 mm lateral to midline. Injury was produced using a magnetic impactor mounted at an angle of 110° from the vertical plane. A single impact at a velocity of 4+/−0.2 m/s was used inflict a moderate to severe injury (1.2-1.3 mm impact depth). After injury, the incision was closed. Sham animals underwent identical surgeries except for impact injury. Core body temperature was monitored using a rectal thermometer and maintained at 36.8° C.-37.2° C. with a heating pad throughout the procedure. For treatments, TIMP3 (60.0 μg/kg) or vehicle control (PBS) administration was performed at 2, 24, and 48 hrs after injury via tail vein injections in a total volume of 125 μl. […]
Contextual discrimination was assessed in a manner similar to prior studies conducted by the inventors and others. […] Comparing the time spent freezing in each chamber during training assessed discrimination of the two contexts.

[2] = tested on: phospho-Akt (Ser473) in hippocampal homogenates; test: Hippocampal phospho-Akt western blot 3 days post-TBI; format: in vivo, mouse
Source text: as §1, with “Sham animals underwent identical surgeries except for impact injury.” left out, “procedure.” for “procedure. For treatments, TIMP3 (60.0 μg/kg) or vehicle control (PBS) administration was performed at 2, 24, and 48 hrs after injury via tail vein injections in a total volume of 125 μl.”
Cell lysates for western blotting were prepared with RIPA buffer (Cat#89900. Thermofisher Scientific, Rockford, Ill.) supplemented with phosphatase inhibitor cocktail 2 (Cat# P5726. Sigma, St Louis, Mo.), phosphatase inhibitor cocktail 3 (Cat# P0044. Sigma, St Louis, Mo.) and complete protease inhibitor (Cat#1862209. Thermofisher Scientific, Rockford, Ill.). […] Protein content was quantified with a Pierce BCA protein assay kit per manufacturer's instructions (Cat#23225. Thermofisher Scientific, Rockford, Ill.). […]

SH-SY5Y cells = test: Hypoxia and MTT assay; format: cell-based, human; settings: 5 hrs hypoxia + 18 hrs recovery; 1 hr pre-treatment with 1 ng/ml TIMP3
Procedure: MTT Cell Viability & Proliferation Assay™ was purchased from ScienCell, (Cat#8028. Carlsbad, Calif.) and performed with modifications. In brief, 2×10^5 SH-SY5Y cells were plated per well of a 12 well plate and differentiated for 2 days. Pre-treatments were conducted 1 hr prior to initiation of hypoxia. Control cells underwent media exchange. For hypoxia, cultures were placed in a hypoxia incubator chamber (Cat#27310. StemCell technologies, Vancouver, BC) and purged of regular air using nitrogen gas for 5 mins at a flow rate of 20 L/min, after which both inlet and outlet values were closed and the chamber was placed inside a regular tissue culture incubator. The chamber was re-gassed after one hour again for 5 mins at a flow rate of 20 L/min. After the hypoxia period, tissue culture plates were removed from the chamber and placed back into a regular tissue culture incubator for 18 hrs. At the time of assay 50 μl of MTT Solution was added to each well and incubated for 1 hr at 37° C. After incubation, add 250 μl of MTT solubilization buffer was added and […] of each test sample was transferred to a well of a 96 well plate. The absorbance was then read using a Polarstar plate reader (BMG Labtech, Cary, N.C.) at a wavelength at 570 nm. Background subtraction was carried out with values from an average of 4 wells of solubilization buffer alone.

B1: TIMP3: Recombinant tissue inhibitor of matrix metalloproteinase-3, a soluble protein released by MSCs, obtained from Amgen Inc. (protein)
chain: CTCSPSHPQDAFCNSDIVIRAKVVGKKLVKEGPFGTLVYTIKQMKMYRGFTKMPHVQYIHTEASESLCGLKLEVNKYQYLLTGRVYDGKMYTGLCNFVERWDQLTLSQRKGLNYRYHLGCNCKIKSCYYLPCFVTSKNECLWTDMLSNFGYPGYQSKHYACIRQKGGYCSWYRGWAPPDKSIINATDP
discrimination between shock and safe contexts [1]: discriminated between the environments following training
phospho-Akt (Ser473) in ipsilateral hippocampal homogenates ([2]; TIMP3 60 μg/kg IV x3, day 3, 1 hr after last injection, vs TBI alone): significantly elevates
Phospho-Akt (Ser473) in contralateral hippocampal homogenates ([2]; day 3): No differences were observed
SH-SY5Y cell viability by MTT after hypoxia (SH-SY5Y cells): prevents loss of cell viability
